# Patent US20260008852A1 (CRYSTAL BIOSCIENCE, published 2026)
# T1: B7-H3 on B7-H3-expressing CHO cells (Genescript) (UniProt Q5ZPR3 29-534, limits assumed)
# T1 construct: whole, on cells; also called CHO-K1/B7-H3; MFI B7-H3
# T1 sequence (looked up): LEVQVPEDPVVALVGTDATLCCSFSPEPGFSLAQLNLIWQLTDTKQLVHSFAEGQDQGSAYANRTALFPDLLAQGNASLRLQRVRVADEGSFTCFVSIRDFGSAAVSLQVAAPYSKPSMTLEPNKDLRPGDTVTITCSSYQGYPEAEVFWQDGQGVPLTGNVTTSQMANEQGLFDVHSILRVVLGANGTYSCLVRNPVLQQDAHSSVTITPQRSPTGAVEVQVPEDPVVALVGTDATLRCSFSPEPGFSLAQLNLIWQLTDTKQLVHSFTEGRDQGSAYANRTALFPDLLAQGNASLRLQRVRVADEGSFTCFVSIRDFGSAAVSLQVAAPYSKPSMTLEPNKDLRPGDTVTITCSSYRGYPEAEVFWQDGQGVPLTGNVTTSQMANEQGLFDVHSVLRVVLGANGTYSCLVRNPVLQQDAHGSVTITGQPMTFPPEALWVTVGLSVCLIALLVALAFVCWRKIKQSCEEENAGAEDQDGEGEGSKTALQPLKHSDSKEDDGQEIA
# T2: His-tagged human B7-H3 (human, UniProt Q5ZPR3-2 29-245, limits assumed)
# T2 construct: Bought His-tagged protein coated on the ELISA plate; also called hu B7-H3; CD276
# T2 sequence (looked up): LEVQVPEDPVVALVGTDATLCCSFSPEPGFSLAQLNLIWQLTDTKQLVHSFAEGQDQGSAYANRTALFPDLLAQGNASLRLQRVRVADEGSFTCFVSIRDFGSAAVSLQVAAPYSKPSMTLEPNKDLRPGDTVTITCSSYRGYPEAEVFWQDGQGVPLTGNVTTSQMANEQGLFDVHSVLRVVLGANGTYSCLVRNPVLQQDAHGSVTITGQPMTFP
# T3: His-tagged mouse B7-H3 (mouse, UniProt Q8VE98 29-244, limits assumed)
# T3 construct: Bought His-tagged protein coated on the ELISA plate; also called mu B7-H3; murine B7-H3
# T3 sequence (looked up): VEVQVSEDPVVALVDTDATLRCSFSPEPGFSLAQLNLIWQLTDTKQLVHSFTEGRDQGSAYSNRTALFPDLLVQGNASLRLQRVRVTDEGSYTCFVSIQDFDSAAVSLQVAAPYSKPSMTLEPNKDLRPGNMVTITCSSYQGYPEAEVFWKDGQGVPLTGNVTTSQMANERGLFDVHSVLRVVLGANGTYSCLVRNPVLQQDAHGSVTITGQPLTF
# T4: His-tagged cynomolgus monkey B7-H3 (cynomolgus monkey)
# T4 chain: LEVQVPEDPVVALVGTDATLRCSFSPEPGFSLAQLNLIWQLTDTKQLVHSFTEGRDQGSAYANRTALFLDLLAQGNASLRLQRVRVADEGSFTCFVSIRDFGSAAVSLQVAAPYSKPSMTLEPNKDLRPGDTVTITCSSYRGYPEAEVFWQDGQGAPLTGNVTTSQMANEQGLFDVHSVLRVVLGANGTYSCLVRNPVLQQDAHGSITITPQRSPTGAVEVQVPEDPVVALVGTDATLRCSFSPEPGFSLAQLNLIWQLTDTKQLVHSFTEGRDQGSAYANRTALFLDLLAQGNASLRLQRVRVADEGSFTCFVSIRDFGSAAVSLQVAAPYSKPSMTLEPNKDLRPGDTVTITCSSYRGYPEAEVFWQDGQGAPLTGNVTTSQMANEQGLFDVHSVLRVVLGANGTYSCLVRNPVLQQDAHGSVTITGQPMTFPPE
# Columns and labels:
# [1] = molecular target: T1, B7-H3 on B7-H3-expressing CHO cells …; assay: flow cytometry, B7-H3-expressing CHO cells, 10 ug/ml
# Experimental: Binding of anti-B7-H3 antibodies to cell lines was assessed by flow cytometry. Briefly, approximately 1.5 e5 B7-H3-expressing CHO cells (Genescript) or parent CHO cells (ATCC) were resuspended in FACS buffer (PBS/1% BSA/0.01% NaN3) containing 10 μg/ml of anti-B7-H3 antibodies and incubated for 60 min on ice. […] Cells were then washed twice, resuspended in FACS buffer, and read on an Attune Flow Cytometer (Life Technologies). Data are expressed as Mean Fluorescent Intensities (MFI).
# His-tagged human B7-H3 [2] = molecular target: T2, His-tagged human B7-H3; assay: ELISA OD450 on hu B7-H3 over OD450 on mu B7-H3
# Experimental: (§1) The variable regions of heavy and light chains were cloned and assembled into a single chain Fv-Fc (ScFv-Fc) mammalian expression vector. Sanger sequencing was performed by GeneWiz and sequences were evaluated using DNASTAR Lasergene 15. Unique scFv-Fes were transiently expressed in Expi293 cells (Life Technologies, #A14527) grown in Expi293 Expression Medium (Life Technologies, #A1435101) after transfection using the ExpiFectamine transfection reagent and supplements (Life Technologies, #A14524). Cells were incubated for 3-5 days with shaking at 37° C. in a 5% CO2 humidified incubator.
# His-tagged mouse B7-H3 = molecular target: T3, His-tagged mouse B7-H3; assay: ELISA, coated His-tagged antigen, scFv-Fc 1 ug/ml
# Experimental: as §1
# [3] = molecular target: T4, His-tagged cynomolgus monkey B7-H3; assay: ELISA, coated His-tagged antigen, scFv-Fc 1 ug/ml
# Experimental: as §1
# His-tagged human B7-H3 [4] = molecular target: T2, His-tagged human B7-H3; assay: ELISA, coated His-tagged antigen, scFv-Fc 1 ug/ml
# Experimental: as §1
Binder,MFI @ 10 ug/ml [1] [MFI],hu:mu ratio (His-tagged human B7-H3 [2]),ELISA OD450 @ 1 ug/ml (His-tagged mouse B7-H3) [OD450],ELISA OD450 @ 1 ug/ml [3] [OD450],ELISA OD450 @ 1 ug/ml (His-tagged human B7-H3 [4]) [OD450]
"40633p1.1.H11 (scFv, V domains shown, Tested as scFv-Fc (Expi293 supernatant)) VH: EVQLLESGGGLVQPGGSLRLSCAASGFTFSSYPMTWVRQAPGKGLEWVADINSGGGTTLYADAVKGRFTISRDNSKNIVYLQMNSLRGEDTAVYYCAKHLDYYSYGMDVWGQGTTVTVSS VL: QSVLTQPPSASGTPGQRVTISCSGVTSKIGSKYVHWYQQLPGTAPKLLIYRNFERPSGVPDRFSGSTSGTSASLAISGLQSEDEADYYCATWEGALNGWVFGGGTKLTVL",81300,1.1,1.88,1.92,2.07
"40633p1.1.G10 (scFv, V domains shown, Tested as scFv-Fc (Expi293 supernatant)) VH: EVQLLESGGGLVEPGGSLRLSCAASGFSFSSYGMHWVRQAPGKGLDWVAVINGEGSGTYYADSVKGRFTISRDNSKSTLYLQMNSLRAEDTAVYYCTKYYYNYAMDVWGQGTTVTVSS VL: QSVLTQPPSASGTPGQRVTISCSGSRTDIGTTSVNWYQQLPGTAPKLLIYQSHQRPSGVPDRFSGSKSGTSASLAISGLQSEDEADYYCASWDASQNTWVFGGGTKLTVL",60100,1.32,1.67,1.81,2.2
"40511p1.1.D6 (scFv, V domains shown, Tested as scFv-Fc (Expi293 supernatant)) VH: DVQLVESGGGVVRPGESLTLSCAASGFTINSYAVSWVRQAPGEGLEWVSGISGSGVRYYADSVKGRFTISRDNSNNTLYLQMNSLRAEDTAVYYCARSNKVTWNNFFDYWGLGTLVTVSS VL: EVVLTQSPGTLTLSPGERATLSCRASRSILTSLAWYQQKPGQAPRLLIYNTVTRATGIPARFSGSGSGTEFTLTINSLQSEDFAVYYCQQYYDWPPLTFGGGTKVEIK",84200,1.19,1.61,2.11,1.92
"40511p1.1.G3 (scFv, V domains shown, Tested as scFv-Fc (Expi293 supernatant)) VH: DVQLVESGGGVVRPGESLTLSCAASGFTINSYAVSWVRQAPGEGLEWVSGISGSGVRYYADSVKGRFTISRDDSNNTLYLQMNSLRAEDTAVYYCARSNKVTWNNFFDYWGLGTLVTVSS VL: EVVLTQSPGTLTLSPGERATLSCRASRSILTSLAWYQQKPGQAPRLLIYNTVTRATGIPARFSGSGSGTEFTLTINSLQSEDFAVYYCQQYYDWPPLTFGGGTKVEIK",89100,1.24,1.71,1.97,2.13
"40633p1.1.E6 (scFv, V domains shown, Tested as scFv-Fc (Expi293 supernatant)) VH: EVQLLESGGGLVQPGGSLRLSCAASGLTFSSYAMNWVRQAPGKGLEWVAGIGGSGSSTYHTDSVKGRFTISRDNSKNTLYLQMSSLRAEDAAVYYCAKEDHWSGGMDVWGQGTTVTVSS VL: not shown",43500,2.44,0.572,1.53,1.39
"40633p1.1.G3 (scFv, V domains shown, Tested as scFv-Fc (Expi293 supernatant)) VH: EVQLLESGGGLVQPGGSLRLSCAASGLTFSSYAMNWVRQAPGKGLEWVAGIGGSGSSTYHTDSVKGRFTISRDNSKNTLYLQMNSLRAEDAAVYYCAKEDHWSGGMDVWGQGTTVTVSS VL: not shown",69900,1.28,1.68,1.89,2.14
"40633p1.1.G5 (scFv, V domains shown, Tested as scFv-Fc (Expi293 supernatant)) VH: EVQLLESGGGLVQPGGSLRLSCAASGFIVNYYGMSWVRQPPGKGLEWVSAIKQDGSEKYYADSVKGRFTISRDNSKTTLYLQMNSLRAEDTAVYYCARHWNDYSNGMNVWGQGTTVTVSS VL: QSVLTQPPSASGTPGQRVTISCSGSWSNIGSYNSHWYQKLPGTAPKLLIYTTDRRPSGVPDRFSGSKSGTSASLAISGLQSEDEADYYCGTWDDSLNVWVFGGGTKLTVL",41000,3.09,0.257,1.49,0.794

# Results, then the binder that gave them:
MFI @ 10 ug/ml [1] [MFI],hu:mu ratio (His-tagged human B7-H3 [2]),ELISA OD450 @ 1 ug/ml (His-tagged mouse B7-H3) [OD450],ELISA OD450 @ 1 ug/ml [3] [OD450],ELISA OD450 @ 1 ug/ml (His-tagged human B7-H3 [4]) [OD450],Binder
63200,1.49,1.03,1.95,1.53,"40633p1.2.D11 (scFv, V domains shown, Tested as scFv-Fc (Expi293 supernatant)) VH: EVQLESGGGLVQPGGSLRLSCAASGFTVSYYGMSWVRQAPGKGLEWVSAIKQDGSEKYYADSVKGRFTISRDNSKNTLYLQMNSLRAEDTAVYYCARHWNDYSNAMNVWGQGTTVTVSS VL: QSVLTQPPSASGTPGQRVTISCSGSTSNIAIDFVNWYQQLPGTAPKLLIYTIDQRPSGVPDRFSGSKSGTSASLAISGLQSEDEAVYYCASWDASLNGWVFGRGTKLTVL"
66800,1.47,1.2,1.77,1.76,"40633p1.1.F2 (scFv, V domains shown, Tested as scFv-Fc (Expi293 supernatant)) VH: EVQLLESGGGLVQPGGSLRLSCVASGLTFNGFAMTWVRQAPGKGLEWVSGISWNSGSIYYADSVKGRFTISRDNSKNTVYLQMSSLRAEDTAIYYCAKNWNDYYNSMDVWGQGTTVTVSS VL: QSVLTQPPSASGTPGQRVTISCSGSRSNIGTKYVYWYQQFPGTAPKLLIYTTDRRPSGVPDRFSGSKSGTSASLAISGLQSEDEADYYCSAWDDRLNAWVFGGGTKLTVL"
14100,1.08,1.38,1.94,1.49,"40633p1.2.D1 (scFv, V domains shown, Tested as scFv-Fc (Expi293 supernatant)) VH: EVQLLESGGGLVQPGGSLRLSCAASGFTFDVYGMSWVRQAPGKGLEWVSAINWNGGSTYYADSVKGRFTISRDNSENTLYLQMNSLRAEDTAVYYCAKEKWKHFIYYGMDVWGQGTTVTVSS VL: QSVLTQPASASGTPGQTVSISCSGSSSNIDSNTANWYQQLPGTAPKLLIYSNNQRPSGVPDRFSGSKSDTSASLAISGLQSEDEGDYYCSAWDDNLNGWLFGGGTKLTVL"
86600,1.12,1.92,2.08,2.15,"40633p1.2.E5 (scFv, V domains shown, Tested as scFv-Fc (Expi293 supernatant)) VH: EVQLLESGGGLVQPGGSLRLSCAASGFTFDGYGMSWVRQAPGKGLEWVSAISGNSGSIYYADSVKGRFTISRDNSKNTLYLQMNSLRAEDTAAYYCAKEKWKHFIYYGMDVWGQGTTVTVSS VL: not shown"
78300,1.15,1.87,1.95,2.16,"40633p1.1.G7 (scFv, V domains shown, Tested as scFv-Fc (Expi293 supernatant)) VH: EVQLLESGGGLVQPGGSLRLSCAASGFTFSGSAMNWVRQAPGKGLEWVSAINSGGTTIYYADSVKGRFTVSRDNSKNTLYLQMNSLRAEDTAVYYCVKLDFYYGMDVWGEGTTVTVSS VL: QSVVTQPPSASGTPGQRVTVSCSGSSSNVGSKYVQWYQQLPGTAPKLLIYATDRRPSGVPDRFSGSKSGTSASLAISGLQSEDEADYYCASWDDSLNAWVFGGGTKLTVL"
